Experimental findings from publication PMC6920325 are described below.

In this data set the target is LDL-R (human, UniProt P01130 22-788). The data set can be described thus: ELONA.
Chain of LDL-R (P01130 22-788): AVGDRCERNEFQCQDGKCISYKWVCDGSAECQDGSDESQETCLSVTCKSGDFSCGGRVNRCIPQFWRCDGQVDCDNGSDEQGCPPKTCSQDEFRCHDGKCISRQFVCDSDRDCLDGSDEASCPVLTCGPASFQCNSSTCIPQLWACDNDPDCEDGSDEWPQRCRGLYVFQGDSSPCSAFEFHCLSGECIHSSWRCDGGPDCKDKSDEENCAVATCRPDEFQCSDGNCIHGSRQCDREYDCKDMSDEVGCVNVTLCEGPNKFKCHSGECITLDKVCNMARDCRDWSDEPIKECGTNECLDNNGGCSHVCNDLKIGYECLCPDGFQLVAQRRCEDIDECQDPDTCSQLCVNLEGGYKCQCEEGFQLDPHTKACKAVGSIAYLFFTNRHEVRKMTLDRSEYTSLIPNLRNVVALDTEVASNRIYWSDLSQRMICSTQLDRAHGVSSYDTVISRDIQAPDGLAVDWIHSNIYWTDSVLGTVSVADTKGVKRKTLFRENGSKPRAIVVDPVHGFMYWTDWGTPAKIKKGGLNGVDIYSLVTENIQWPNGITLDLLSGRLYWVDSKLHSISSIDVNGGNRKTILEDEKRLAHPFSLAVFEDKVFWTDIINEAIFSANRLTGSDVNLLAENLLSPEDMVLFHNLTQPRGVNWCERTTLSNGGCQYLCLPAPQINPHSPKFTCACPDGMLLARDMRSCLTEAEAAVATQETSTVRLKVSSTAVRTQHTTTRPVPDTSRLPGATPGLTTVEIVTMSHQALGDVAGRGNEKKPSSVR

B1: RNV-L7 (ssDNA)
DNA: GGACAGGACCACACCCAGCGCGGTCGGCGGGTGGGCGGGGGGAGAACGAGGTAGGGGTCAGGCTCCTGTGTGTCGCTTTGT
The term Kd denotes a measure of binding affinity in units of concentration. Low readings indicate tighter binding, high ones weaker binding. The molecule B1 came in with a Kd of 19.6 nM. Take CGGTCGGCGGGTGGGCGGGGGGAGAACGAGGTAGGGGTCA (ssDNA) [RNV-L7 truncated]: the binding result was “no binding”.
